According to publication doi:10.1101/2024.07.12.603331:

Target: soluble extracellular domain of human DPP4 (residues S39-P766) (human), P27487
Experiment: SEC-MALS
Conditions: remark: other sources report otherwise

B1: soluble extracellular domain of human DPP4 (residues S39-P766), P27487 39-766 (domain or fragment)
chain: SRKTYTLTDYLKNTYRLKLYSLRWISDHEYLYKQENNILVFNAEYGNSSVFLENSTFDEFGHSINDYSISPDGQFILLEYNYVKQWRHSYTASYDIYDLNKRQLITEERIPNNTQWVTWSPVGHKLAYVWNNDIYVKIEPNLPSYRITWTGKEDIIYNGITDWVYEEEVFSAYSALWWSPNGTFLAYAQFNDTEVPLIEYSFYSDESLQYPKTVRVPYPKAGAVNPTVKFFVVNTDSLSSVTNATSIQITAPASMLIGDHYLCDVTWATQERISLQWLRRIQNYSVMDICDYDESSGRWNCLVARQHIEMSTTGWVGRFRPSEPHFTLDGNSFYKIISNEEGYRHICYFQIDKKDCTFITKGTWEVIGIEALTSDYLYYISNEYKGMPGGRNLYKIQLSDYTKVTCLSCELNPERCQYYSVSFSKEAKYYQLRCSGPGLPLYTLHSSVNDKGLRVLEDNSALDKMLQNVQMPSKKLDFIILNETKFWYQMILPPHFDKSKKYPLLLDVYAGPCSQKADTVFRLNWATYLASTENIIVASFDGRGSGYQGDKIMHAINRRLGTFEVEDQIEAARQFSKMGFVDNKRIAIWGWSYGGYVTSMVLGSGSGVFKCGIAVAPVSRWEYYDSVYTERYMGLPTPEDNLDHYRNSTVMSRAENFKQVEYLLIHGTADDNVHFQQSAQISKALVDVGVDFQAMWYTDEDHGIASSTAHQHIYTHMSHFIKQCFSLP
  stoichiometry N: 2
